Measurements: paper PMC6592559
Ends that are not written are not given here.

Target: T1, PDF receptor (PDFR), endogenous in the insulin producing cells (Drosophila melanogaster (endogenous in fly brain)) (UniProt Q9W4Y2)
T1 sequence: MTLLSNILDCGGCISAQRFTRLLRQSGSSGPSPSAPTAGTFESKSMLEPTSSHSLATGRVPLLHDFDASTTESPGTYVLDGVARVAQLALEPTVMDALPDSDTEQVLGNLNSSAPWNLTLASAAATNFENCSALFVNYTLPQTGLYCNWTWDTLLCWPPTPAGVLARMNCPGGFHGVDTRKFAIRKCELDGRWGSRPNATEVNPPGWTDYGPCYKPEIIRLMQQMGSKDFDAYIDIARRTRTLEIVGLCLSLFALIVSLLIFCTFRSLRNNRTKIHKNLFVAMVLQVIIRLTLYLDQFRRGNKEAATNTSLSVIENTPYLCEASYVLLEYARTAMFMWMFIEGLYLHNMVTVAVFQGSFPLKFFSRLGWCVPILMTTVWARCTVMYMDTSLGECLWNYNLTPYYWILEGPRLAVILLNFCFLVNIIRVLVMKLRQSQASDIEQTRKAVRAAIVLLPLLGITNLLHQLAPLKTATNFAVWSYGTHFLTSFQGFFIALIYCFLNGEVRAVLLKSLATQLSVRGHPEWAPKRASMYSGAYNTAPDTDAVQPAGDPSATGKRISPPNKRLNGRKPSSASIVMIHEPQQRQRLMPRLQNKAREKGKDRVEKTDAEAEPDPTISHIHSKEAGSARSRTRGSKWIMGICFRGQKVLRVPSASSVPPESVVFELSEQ

NSELINSLLSLPKNMNDA-NH2 [Pigment Dispersing Factor (PDF), synthetic peptide]
cAMP FRET signal (Epac1camps) in the IPCs of dissected brains, 10 uM PDF bath-applied, 100-1000 s, against the HL3 negative control; no increase in the PDFR-null han mutant: 10%
